Measurements reported in US20220380473A1, “ANTI-GAL3 ANTIBODIES AND USES THEREOF” (TrueBinding, Inc., priority 2019, published 2022).
“Also recorded” adds a separate entry of the source.

Tests used:
Renca cells = assay: Primary mouse Renca renal tumor model; format: in vivo; settings: vs isotype control
Description: On the day of tumor implantation, mice were anesthetized by inhalation anesthetic (3 to 5% Isoflurane in medical grade air), Renca cells were washed and resuspended in PBS before subcutaneously injecting 2×10^5 cells in 0.1 mL, PBS using a syringe with a 25-ga needle. […] The animals were humanely sacrificed when tumor volume in the control group reached between 2000-2500 mm^3. Results were expressed as mean±SEM. The statistical analysis was performed in comparison with IgG2b control group using unpaired t test.

human Gal3 protein = assay: Epitope binding of IMT001, hGal3 peptide array dot blot and peptide ELISA; settings: dot blot, 1 ug/ml antibody
Description: A peptide array containing 24 20 amino acid peptides overlapping by 10 amino acid and covering the whole human Gal3 protein sequence was synthesized (Genscript, Piscataway, N.J.) (FIG. 11A). 20 μg of each peptide was dot blotted onto a membrane. After blocking with 5% milk in PBS, the membrane was incubated with 1 ug/ml IMT001 antibody at 4C for overnight. After three times of washes, the membrane was incubated with 1:8000 diluted anti mIgG HRP antibody (Southern Biotech, Birmingham, Ala.) for one hour. After three times of washes, the membrane was incubated with Western ECL blotting substrates (Bio-Rad, Hercules, Calif.) and developed (FIG. 11B).
To further define binding epitope of IMT001 on the above peptide, 8 shorter peptides derived from it were synthesized (Genscript, Piscataway, N.J.) (FIG. 11C) and their binding by IMT001 was determined by ELISA (FIG. 11D). 96 well Elisa plate (Thermo Scientific) was coated with these peptides in PBS buffer and incubated at 4° C. for overnight. The plate was washed three times with TBST and then blocked with PBST buffer containing 2% BSA at room temperature for 1 h. IMT001 at 10 μg/mL was incubated in the coated Elisa plate at room temperature for 1 h. […] The optical density (OD) was read at 450 nm. The results were expressed as the average OD of duplicates±SD.

B16F10 cells = assay: Immune profiling in B16F10 lung metastasis mice; format: in vivo, mouse; settings: 10 mg/kg I.P., day 8, vs isotype control
Description: Mice were implanted with 1 million B16F10 cells I.V. Mice were then treated with IMT001 or isotype control (10 mg/kg I.P.) on Day 0, 1, 3 and 7 and sacrificed on day 8 for lung immune cell isolation and phenotyping. Cells were isolated from the lungs, and then stained with fluorescently labeled antibodies against lymphocyte markers CD3, CD4, CD8, CD19, DX5 and analyzed by flow cytometry.

a-SMA and fibronectin = assay: N-IF mouse liver fibrosis, western blot of fibrosis markers; format: in vivo; settings: 10 mg/kg every fourth day for 40 days, vs mIgG2b
Description: N-IF mice were generated by crossing 24αβNOD mice and NOD.Rag2−/− mouse strains. The N-IF mice were backcrossed with the B6.Rag2−/− mouse strains for 10 generations. Mice (male and female) were separated into two groups: IMT001 antibody treatment group and mIgG2b antibody control group. Antibodies were administered to the animals every fourth day for 40 days, at 10 mg/kg body weight and the animals were subsequently sacrificed. All efforts were made to minimize suffering. Liver and Kidney tissues were collected and snap frozen in liquid nitrogen for western blot analysis. Tissue processing and western blot analysis were performed as in Example 19. GAPDH was used a loading control reference.

Galectin-3 = Galectin-3 (Homo sapiens, UniProt P17931); assay: SPR (BiacoreT200) binding affinity; settings: 25° C., read-out: hGal-3 KD
Description: GAL3-binding antibodies were evaluated for their binding affinity by SPR. Kinetics experiments were performed on BiacoreT200 at 25° C. in high performance mode. Ligand proteins, purified antibodies were captured onto a CM5 chip coupled with anti-human Fc or anti-mouse Fc antibody, three antibodies at a time onto flow cell #2, 3, and 4, respectively, while flow cell #1 was used as reference. The analyte Galectin-3 in HBS-EP buffer was injected over all four flow cells at concentrations of 100, 50, 25, 12.5, 6.25, 3.125 and 0 nM at a flow rate of 30 μL/min. The complex was allowed to associate and dissociate for 240 and 300 seconds, respectively. The surfaces were regenerated with a 30 second injection of 10 mM Glycine pH 1.7 (flow rate 30 μL/min). The data were fit to a simple 1:1 interaction model using the global data analysis option available within BiacoreT200 Evaluation software V2.0. The affinity of Gal3 monoclonal antibodies was confirmed to be […] 30 nM for all antibodies studied (Table 24.1). Antibodies with affinity less than 2E-7 were selected for further characterization.

human Gal3-His = human Gal3-His (Homo sapiens, UniProt P17931); assay: Antibody binning by biolayer interferometry (Gator); format: binding; settings: antibody competition
Description: To determine whether Gal3-binding antibodies with Gal3-TIM3 blocking activity bind to the same or overlapping regions of the Gal3 molecule, antibody binning assays were performed to assess the ability of antibodies to simultaneously bind Gal3. Amine-reactive probes were loaded onto a Gator biosensor (Probe Life, Palo Alto, Calif.), equilibrated in dH20 for 60 seconds, dipped into 100 μl EDC 0.2M/NHS 0.05M activation buffer for 30 seconds, then dipped into a solution of […] human Gal3-His in 10 mM NaOAc buffer, pH 5 until binding was saturated, and quenched in 1 M ethanolamine pH 8.5 for 300 seconds. Following Gal3-His loading, tips were dipped in 20 μg/mL saturating antibody, then successively dipped into 5 μg/mL competing antibody.

[1] = tested on: STAM HFD-CDAA mouse model of liver fibrosis; assay: STAM CDAA-HFD mouse model of liver fibrosis; format: in vivo
Description: To confirm that the observed reduction of liver fibrosis in the MCD mouse model was not unique to this setting, the activity of mIMT001 was explored in the STAM HFD-CDAA mouse model of liver fibrosis. Briefly, Two-day-old male C57Bl/6 mice were injected by a single subcutaneous injection of 200 ug of streptozotocin to cause islet destruction and then fed CDAA-high fat diet (Research Diet #A06071302) starting at 4 weeks of age and continuing for the entire duration of each study. At 8 weeks of age, mice were divided into two groups (seven mice each) based on ALT score. Mice were treated human anti-mIgG4 isotype control (hIgG4, 10 mg/kg) or human anti-Gal3 antibody (IMT001-4, 10 mg/kg) twice a week by intraperitoneal injection for 4 weeks. All animal care and procedures were approved by the Immutics IACUC.

Sequence of Galectin-3 (P17931 whole entry): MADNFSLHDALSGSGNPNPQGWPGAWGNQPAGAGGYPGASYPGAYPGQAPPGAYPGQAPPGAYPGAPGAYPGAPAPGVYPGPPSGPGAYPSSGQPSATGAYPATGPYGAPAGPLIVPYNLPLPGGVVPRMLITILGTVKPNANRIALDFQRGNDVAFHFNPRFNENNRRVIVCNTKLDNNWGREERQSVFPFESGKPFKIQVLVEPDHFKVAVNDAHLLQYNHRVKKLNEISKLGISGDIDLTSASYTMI
Sequence of human Gal3-His (P17931 whole entry): as above

B1: IMT001: anti-Gal3 monoclonal antibody (Immutics); printed as mIMT001 (IMT001), murine (antibody, V domains shown)
VH: QIQLVQSGPELKKPGETVKISCKASGYTFTNYGMNWVKQAPGKGLKWMGWINTNTGEPTYVEEFKGRFAFSLETSASTAYLQINNLKNEDTATYFCAPYDNFFAYWGQGTLVTVSA
VL: DIVITQDELSNPVTSGESVSISCRSSKSLLYKDGKTYLNWFLQRPGQSPQLLIYLMSTHASGVSDRFSGSGSGTDFTLEISRVKAEDVGVYYCQQLVDYPLTFGAGTKLELK
reduction of tumor growth (Renca cells; 10 mg/Kg i.p.): about 35%
effect on tumor size (Renca cells): much reduced tumor size
epitope on hGal3, 20 amino acid peptide array (human Gal3 protein): Peptides 5 and 6; also recorded: peptide_5
number of immune effector cells in lungs (CD3, CD4, CD8, CD19, DX5) (B16F10 cells): increased the number of various immune effector cell
expression of fibrotic markers a-SMA and fibronectin in liver (a-SMA and fibronectin): significant reductions
Kd (Galectin-3): 1.67 nM
Bin (human Gal3-His): 1
% area picosirius red staining ([1]; liver, 10 mg/kg twice a week i.p. for 4 weeks): 1.66%
reduction of picosirius red staining ([1]; vs isotype control): 67%
